Measurements: US20240025978A1 (BIOVERATIV USA, published 2024)

Biological target: T1, activated human complement C1s (Homo sapiens, UniProt P09871 16-688)
T1 sequence: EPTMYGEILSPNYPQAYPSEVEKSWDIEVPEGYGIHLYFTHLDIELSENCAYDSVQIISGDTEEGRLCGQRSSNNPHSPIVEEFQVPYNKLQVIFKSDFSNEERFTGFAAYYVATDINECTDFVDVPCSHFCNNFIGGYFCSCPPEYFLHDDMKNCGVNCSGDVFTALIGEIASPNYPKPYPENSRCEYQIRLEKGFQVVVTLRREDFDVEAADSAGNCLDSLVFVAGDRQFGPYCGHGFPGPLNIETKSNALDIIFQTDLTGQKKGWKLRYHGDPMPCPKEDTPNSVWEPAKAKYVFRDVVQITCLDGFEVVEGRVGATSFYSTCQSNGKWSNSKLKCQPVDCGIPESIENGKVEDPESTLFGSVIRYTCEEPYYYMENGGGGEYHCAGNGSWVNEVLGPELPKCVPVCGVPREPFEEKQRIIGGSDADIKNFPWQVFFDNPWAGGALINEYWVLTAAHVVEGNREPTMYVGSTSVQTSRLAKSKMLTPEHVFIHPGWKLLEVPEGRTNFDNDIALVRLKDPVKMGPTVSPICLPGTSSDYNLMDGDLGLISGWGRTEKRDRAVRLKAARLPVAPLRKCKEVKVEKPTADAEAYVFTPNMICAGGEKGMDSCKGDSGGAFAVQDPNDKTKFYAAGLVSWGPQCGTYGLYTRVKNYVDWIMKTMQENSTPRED
Test: cell-based or functional assay

B1: SAR445088 (antibody, human IgG4 S228P, kappa, V domains shown)
VH: QVQLVQSGAEVKKPGASVKLSCTASGFNIKDDYIHWVKQAPGQGLEWIGRIDPADGHTKYAPKFQVKVTITADTSTSTAYLELSSLRSEDTAVYYCARYGYGREVFDYWGQGTTVTVSS
VL: DIVLTQSPDSLAVSLGERATISCKASQSVDYDGDSYMNWYQQKPGQPPKILIYDASNLESGIPARFSGSGSGTDFTLTISSLEPEDFAIYYCQQSNEDPWTFGGGTKVEIKR
CH50 (50% hemolytic complement activity, liposome-based assay), population PK/PD model, typical IC50: 16.6 µg/mL | percent CP (Wieslab classical pathway assay), population PK/PD model, typical IC50: 96.4 µg/mL
